Common to all, as to test: cross-linking; 50 µg purified TFIID, 3 mM BS3, 2 h at 25 °C; trypsin, SCX fractionation, Orbitrap Fusion MS; pLink and Nexus, 5% FDR
Conditions in all cases: both partners purified

Test [1] deals with T1, Taf8, subunit of Komagataella phaffii TFIID (Komagataella phaffii, UniProt F2QT15 1-517).
T1 construct: Taf8, TFIID subunit of the yeast Komagataella phaffii (formerly Pichia pastoris); putative helices placed in the cryo-EM map; also called KpTaf8; source: endogenous, K. phaffii nuclear extract; co-purified in TFIID by SBP-tagged Taf2 (streptavidin beads, sucrose gradient)
T1 sequence (looked up): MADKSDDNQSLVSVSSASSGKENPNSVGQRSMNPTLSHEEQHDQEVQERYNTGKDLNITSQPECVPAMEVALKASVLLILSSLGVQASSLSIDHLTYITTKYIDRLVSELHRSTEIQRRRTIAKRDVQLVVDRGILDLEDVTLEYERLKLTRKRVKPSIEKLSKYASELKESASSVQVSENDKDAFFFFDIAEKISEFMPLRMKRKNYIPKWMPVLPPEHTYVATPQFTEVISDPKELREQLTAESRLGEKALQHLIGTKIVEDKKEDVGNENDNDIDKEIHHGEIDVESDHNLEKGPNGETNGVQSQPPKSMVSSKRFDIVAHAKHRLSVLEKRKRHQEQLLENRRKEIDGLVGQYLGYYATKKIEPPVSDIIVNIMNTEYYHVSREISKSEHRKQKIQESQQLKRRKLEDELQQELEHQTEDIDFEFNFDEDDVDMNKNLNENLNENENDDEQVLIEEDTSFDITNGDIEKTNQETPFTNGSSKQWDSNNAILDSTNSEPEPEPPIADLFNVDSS

Test [2] deals with T2, Taf11, subunit of Komagataella phaffii TFIID (Komagataella phaffii, UniProt F2QRB1 1-281).
T2 construct: Taf11, TFIID subunit of the yeast Komagataella phaffii (formerly Pichia pastoris); histone-fold domain modelled in the cryo-EM map; source: endogenous, K. phaffii nuclear extract; co-purified in TFIID by SBP-tagged Taf2 (streptavidin beads, sucrose gradient)
T2 sequence (looked up): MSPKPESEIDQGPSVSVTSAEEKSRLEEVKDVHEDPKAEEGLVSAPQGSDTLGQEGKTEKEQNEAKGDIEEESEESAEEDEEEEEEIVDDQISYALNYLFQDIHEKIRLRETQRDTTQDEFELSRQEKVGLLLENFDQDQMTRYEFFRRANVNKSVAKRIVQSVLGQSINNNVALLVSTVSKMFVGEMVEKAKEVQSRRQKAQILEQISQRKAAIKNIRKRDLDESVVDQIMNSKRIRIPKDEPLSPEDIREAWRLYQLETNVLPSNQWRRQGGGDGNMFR

In test [3] the target is T3, Taf5, subunit of Komagataella phaffii TFIID (Komagataella phaffii, UniProt F2QWD3 1-722).
T3 construct: Taf5, TFIID subunit of the yeast Komagataella phaffii (formerly Pichia pastoris); WD40 repeat and NTD (residues 99–243) modelled in the cryo-EM map; two copies in holo-TFIID; source: endogenous, K. phaffii nuclear extract; co-purified in TFIID by SBP-tagged Taf2 (streptavidin beads, sucrose gradient)
T3 sequence (looked up): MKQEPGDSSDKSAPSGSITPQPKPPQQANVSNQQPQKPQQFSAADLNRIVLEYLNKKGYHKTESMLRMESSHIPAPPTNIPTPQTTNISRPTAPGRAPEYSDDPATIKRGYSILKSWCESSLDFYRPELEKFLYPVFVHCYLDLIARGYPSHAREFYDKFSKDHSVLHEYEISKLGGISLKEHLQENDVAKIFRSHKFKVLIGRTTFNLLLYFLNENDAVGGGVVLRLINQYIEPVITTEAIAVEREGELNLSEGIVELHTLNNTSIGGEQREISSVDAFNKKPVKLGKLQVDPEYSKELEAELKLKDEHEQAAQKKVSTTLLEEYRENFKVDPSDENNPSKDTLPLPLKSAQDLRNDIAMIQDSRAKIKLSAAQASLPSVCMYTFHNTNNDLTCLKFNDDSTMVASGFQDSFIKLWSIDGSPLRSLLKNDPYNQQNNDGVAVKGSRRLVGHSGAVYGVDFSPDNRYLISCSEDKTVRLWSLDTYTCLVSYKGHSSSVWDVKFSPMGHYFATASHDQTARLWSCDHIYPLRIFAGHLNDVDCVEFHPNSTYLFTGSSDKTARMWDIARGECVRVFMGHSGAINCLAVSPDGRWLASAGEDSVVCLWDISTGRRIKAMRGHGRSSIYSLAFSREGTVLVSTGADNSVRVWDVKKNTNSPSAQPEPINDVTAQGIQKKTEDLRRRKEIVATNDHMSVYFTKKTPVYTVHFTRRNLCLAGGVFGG

The target of test [4] is T4, Taf1 (TBP-associated factor 1), subunit of Komagataella phaffii TFIID (Komagataella phaffii, UniProt F2QMX2 1-1010).
T4 construct: Taf1, TFIID subunit of the yeast Komagataella phaffii (formerly Pichia pastoris); native subunit of the purified complex; also called KpTaf1; source: endogenous, K. phaffii nuclear extract; co-purified in TFIID by SBP-tagged Taf2 (streptavidin beads, sucrose gradient)
T4 sequence (looked up): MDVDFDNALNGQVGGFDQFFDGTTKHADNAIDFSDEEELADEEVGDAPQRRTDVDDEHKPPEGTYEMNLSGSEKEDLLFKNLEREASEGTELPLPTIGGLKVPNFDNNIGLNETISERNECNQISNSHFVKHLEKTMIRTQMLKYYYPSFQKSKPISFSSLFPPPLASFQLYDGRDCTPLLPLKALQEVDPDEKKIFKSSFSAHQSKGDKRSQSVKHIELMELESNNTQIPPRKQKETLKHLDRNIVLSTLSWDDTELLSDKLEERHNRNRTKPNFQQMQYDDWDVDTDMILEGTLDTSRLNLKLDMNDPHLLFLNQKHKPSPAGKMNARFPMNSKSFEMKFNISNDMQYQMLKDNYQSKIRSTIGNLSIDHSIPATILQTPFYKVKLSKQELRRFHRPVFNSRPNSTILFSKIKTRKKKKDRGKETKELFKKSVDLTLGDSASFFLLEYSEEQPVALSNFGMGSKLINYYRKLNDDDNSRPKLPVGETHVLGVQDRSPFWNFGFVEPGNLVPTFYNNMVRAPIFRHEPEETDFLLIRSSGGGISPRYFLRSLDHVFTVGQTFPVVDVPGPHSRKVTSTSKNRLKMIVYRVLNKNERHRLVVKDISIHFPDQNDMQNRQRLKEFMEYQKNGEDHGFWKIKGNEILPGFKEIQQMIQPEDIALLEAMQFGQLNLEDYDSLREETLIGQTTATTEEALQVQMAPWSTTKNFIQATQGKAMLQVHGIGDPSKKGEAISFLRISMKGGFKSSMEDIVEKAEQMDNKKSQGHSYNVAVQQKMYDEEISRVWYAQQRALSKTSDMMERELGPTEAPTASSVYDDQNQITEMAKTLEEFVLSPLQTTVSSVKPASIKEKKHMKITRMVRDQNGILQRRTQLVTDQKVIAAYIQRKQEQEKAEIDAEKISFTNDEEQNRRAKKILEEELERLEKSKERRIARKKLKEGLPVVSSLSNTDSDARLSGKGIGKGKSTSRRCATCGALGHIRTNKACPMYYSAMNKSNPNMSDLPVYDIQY

Test [5] has as its target T5, Taf2 with C-terminal streptavidin-binding peptide tag, subunit of Komagataella phaffii TFIID (Komagataella phaffii, UniProt F2QRH9 1-1571).
T5 construct: Taf2, TFIID subunit of the yeast Komagataella phaffii (formerly Pichia pastoris); residues 36 to 1194 modelled in the cryo-EM map; bait of the purification; also called SBP-tagged Taf2; source: K. phaffii strain with SBP-tagged Taf2, nuclear extract; purified (streptavidin beads, biotin elution, sucrose gradient)

The values below come from paper PMC6220335, “Molecular structure of promoter-bound yeast TFIID” (Nature Communications, 2018).

B1: Taf10, subunit of Komagataella phaffii TFIID (natural protein, UniProt F2QLJ9 1-217, looked up)
chain: MSTEKLFEDLDEDSLMQDVEGGVEGSMTIEEEPEPNDEKEAPHISMPSLPEYTRKDKTLEEILEMMEDEEFTPIIPDAVTDYYLAKNGFETSDIKIKRILALATQKFISDIAQDAYEYSRIRSSSSVYTSANPQARARQLVAGQQQQQQQQPQQQQQQQPQTGASQPAPTVGGSGGGGGGGGGTSTGTNNKVVLTMDDLRSALGEYGINVKRPNFYR
notes: Taf10, TFIID subunit of the yeast Komagataella phaffii (formerly Pichia pastoris); source: endogenous, K. phaffii nuclear extract; co-purified in TFIID by SBP-tagged Taf2 (streptavidin beads, sucrose gradient)
Turning to B1, the binding result in test [1] is reported as “binds”.

B2: Taf9, subunit of Komagataella phaffii TFIID (natural protein, UniProt F2QTW3 1-153, looked up)
chain: MTNEQAAIPRDVRLLHLIFATQNIYSYQDHVPLQLMDFAYRYTTGTLQDATIYSDHAHASGSHISNAGNAGTNAQLTTEDIRLAIAARTNYQFKPVPPKELLLELAAERNKKPLPAVIPTWGIRLPPEKYCLTGKDWVLEDEEEAVSYKKRKT
notes: Taf9, TFIID subunit of the yeast Komagataella phaffii (formerly Pichia pastoris); histone-fold domain modelled in the cryo-EM map; source: endogenous, K. phaffii nuclear extract; co-purified in TFIID by SBP-tagged Taf2 (streptavidin beads, sucrose gradient)
Consider B2, for which the binding result in test [2] and in test [3] was “binds” each time.

B3: Taf7, subunit of Komagataella phaffii TFIID (natural protein, UniProt F2QXR8 1-460, looked up)
chain: MIKLKLHTDKKQNTVERRPKIKVKPPINKPESTVIPRIRVKPTRIAGDGYDSEDPDREDDPTTEEAIVMRIVPNDYSLEYVKKCVEQGDFSEISLQWKDKRRAVLRLKDRLYGAKLVDLPTMVEIHKTIDRKNIFKTMDVSQILLVIKELKYESEYLDIQLTASETFDDGLTPPLRGVKKRFDKRMTSKVFQIIEEQVDELFRLDEEAEASKYELVDTEAGTIPSFDADASTPNTKEFTVRGHLDVEDNEDLELELEQAFQQQSDTPLNPQQRSKGGRKTNDSDAHVRFYEQEEEDDEDEETFELKRVCSAEAKVEEGEEEAEEETEETEDDEDDDDEEVVGGKEIISGQRAGIDERLTHTQIIKEEIEELQATIGLKQSDFNKASNPIMKNRISDVIGRLKAELETKLRQVEMEQKEQQNNSNVTSHNIYQQRELDEDEDEDDDEDGDEDDDDDMEDLF
notes: Taf7, TFIID subunit of the yeast Komagataella phaffii (formerly Pichia pastoris); source: endogenous, K. phaffii nuclear extract; co-purified in TFIID by SBP-tagged Taf2 (streptavidin beads, sucrose gradient)
Take B3: the binding result in test [4] and in test [5] was “binds” throughout.
